Assays:
[1] = target: T1, HLA-A*0201 (human); assay: T2 cells loaded with 100 µM peptide, Brefeldin A, decay of HLA-A*0201 labelling (mAb BB7.2) over 0-6 h
T1 construct: whole, on cells; MHC class I molecule on T2 cells; also called HLA-A2
Procedure: (§1) The protocol used to measure relative affinity (RA) is described in detail elsewhere (Tourdot et al., 2000). […] The cells were then treated with Brefeldin A for 1 h, washed, incubated at 37° C. for 0, 2, 4 and 6 hours, and labeled with mAb BB7.2.

[2] = target: T1, HLA-A*0201; assay: T2 cell HLA-A*0201 stabilisation, flow cytometry with mAb BB7.2; peptide concentration / reference peptide concentration giving 20% HLA-A*0201 expression
Procedure: as §1

Row | Binder | DC50 (half-life of the HLA/peptide complex) [1] | RA (relative affinity) [2]
1 | YLEYRQVPV (also called optimized variant of MAGE-A248D9/G9) [MAGE-A248V9] | 4 h | 1.8 ratio to reference peptide HIVpol589 (reference = 1)
2 | YLEEITGYL (also called optimized variant of the cryptic peptide HER-2/neu402) [HER-2/neu402Y] | 4 h | 3.6 ratio to reference peptide HIVpol589 (reference = 1)
3 | YLQVNSLQTV (also called optimized variant of the cryptic peptide TERT988) [TERT988Y] | > 6 h | 2.1 ratio to reference peptide HIVpol589 (reference = 1)

Reference: patent US20090130133A1 (VAXON BIOTECH, published 2009)
